Here are results for one molecule from CN115611981A (GENOR BIOPHARMA CO LTD, dated 2023).

The experiment concerns the target T1, PD-1 (UniProt Q15116 25-288, limits assumed).
T1 construct: whole, on cells; also called Jurkat/PD-1细胞表面的PD-1; Jurkat/PD1
Briefly: Jurkat/PD-1 + CHO/PD-L1 NFAT-luciferase reporter blockade assay (binding inferred).

T1 sequence (Q15116 25-288 limits assumed): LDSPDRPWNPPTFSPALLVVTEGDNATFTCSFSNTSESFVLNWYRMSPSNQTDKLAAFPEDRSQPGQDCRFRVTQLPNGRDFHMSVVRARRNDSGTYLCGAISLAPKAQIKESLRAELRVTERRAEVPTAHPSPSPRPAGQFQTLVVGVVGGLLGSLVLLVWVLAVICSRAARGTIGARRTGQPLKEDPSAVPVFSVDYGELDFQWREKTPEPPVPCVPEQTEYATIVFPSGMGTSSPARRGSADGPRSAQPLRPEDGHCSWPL

B1: G-Ab1 (antibody, human IgG4 S228P, kappa, V domains shown)
VH: QIQLVQSGSELKKPGASVKVSCKASGYTFTNFGMNWVRQAPGQGLKWMGWISGYTREPTYAADFKGRFVISLDTSVSTAYLQISSLKAEDTAVYYCARDVFDYWGQGTLVTVSS
VL: DIVLTQSPASLAVSPGQRATITCRASESVDNYGYSFMNWFQQKPGQPPKLLIYRASNLESGVPARFSGSGSRTDFTLTINPVEADDTANYYCQQSNADPTFGQGTKLEIKR
notes: The control used was an IgG4 isotype control; also called 抗PD-1抗体; G-Ab1抗体
As for B1, the binding result is “binds”.
